# Laboratory results reported in IntAct's records for PubMed 31831856.
# B1: Iron-sulfur cluster assembly factor IBA57, mitochondrial (Homo sapiens), Q5T440 (parent)
# chain: MATAALLRGATPGRGGPVWRWRLRAAPRCRLAHSSCSPGGDPTAGAAWACFRLDGRTLLRVRGPDAAPFLLGLLTNELPLPSPAAAGAPPAARAGYAHFLNVQGRTLYDVILYGLQEHSEVSGFLLECDSSVQGALQKHLALYRIRRKVTVEPHPELRVWAVLPSSPEACGAASLQERAGAAAILIRDPRTARMGWRLLTQDEGPALVPGGRLGDLWDYHQHRYLQGVPEGVRDLPPGVALPLESNLAFMNGVSFTKGCYIGQELTARTHHMGVIRKRLFPVRFLDPLPTSGITPGATVLTASGQTVGKFRAGQGNVGLALLWSEKIKGPLHIRASEGAQVALAASVPDWWPTVSK
# partner: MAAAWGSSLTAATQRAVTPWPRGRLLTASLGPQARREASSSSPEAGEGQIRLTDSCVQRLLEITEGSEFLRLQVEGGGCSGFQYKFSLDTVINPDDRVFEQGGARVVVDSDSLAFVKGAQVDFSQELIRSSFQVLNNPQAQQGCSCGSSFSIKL
# Variants of: B1
# Settings: with isca2_human ISCA2, Q86U28
row,Variant,effect of a mutation on the interaction
1,MATAALLRGATPGRGGPVWRWRLRAAPRCRLAHSSCSPGGDPTAGAAWACFRLDGRTLLRVRGPDAAPFLLGLLTNELPLPSPAAAGAPPAARAGYAHFLNVQGRTLYDVILYGLQEHSEVSGFLLECDSSVQGALQKHLALYRIWRKVTVEPHPELRVWAVLPSSPEACGAASLQERAGAAAILIRDPRTARMGWRLLTQDEGPALVPGGRLGDLWDYHQHRYLQGVPEGVRDLPPGVALPLESNLAFMNGVSFTKGCYIGQELTARTHHMGVIRKRLFPVRFLDPLPTSGITPGATVLTASGQTVGKFRAGQGNVGLALLWSEKIKGPLHIRASEGAQVALAASVPDWWPTVSK [R146W],disrupting interaction strength
